According to patent publication US20070014786A1 (RINAT NEUROSCIENCE, published 2007):

B1: mouse anti-trkC agonist monoclonal antibody 2256 (antibody, V domains shown)
VH: QVQLQQPGAELVKPGASVKLSCKASGYTFTSYWMHWVKQRPGQGLEWIGEIYPSNGRTNYNEKFKSKATLTVDKSSSTAYMQLSSLTSEDSAVYYCARKYYYGNSYRSWYFDVWGAGTTLTVS
VL: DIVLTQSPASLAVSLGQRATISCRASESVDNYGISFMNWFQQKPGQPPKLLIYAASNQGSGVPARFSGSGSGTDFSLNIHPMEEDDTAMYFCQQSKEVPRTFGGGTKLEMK
B2: humanized anti-trkC agonist antibody A5 (antibody, V domains shown)
VH: QVQLVQSGAEVKKPGASVKVSCKASGYTFTSYRIHWVRQAPGQGLEWMGEIYPSNARTNYNEKFKSRVTMTRDTSTSTVYMELSSLRSEDTAVYYCARKYYYGNTRRSWYFDVWGQGTTVTVS
VL: DIQMTQSPSSLSASVGDRVTITCRASESIDNYGISFLAWYQQKPGKAPKLLIYAASNRGSGVPSRFSGSGSGTDFTFTISSLQPEDIATYYCQQSKTVPRTFGQGTKLEIKR

Legend:
[1] = biological target: T1, human trkC (human, UniProt Q16288 32-429, limits assumed); assay: BIAcore (SPR); format not stated
T1 construct: also called htrkC

[2] = biological target: rat trkC (rat, UniProt Q03351 32-429, limits assumed); assay: BIAcore (SPR); format not stated; rat trkC
[3] = biological target: T1, human trkC; assay: BIAcore (SPR); format not stated; human trkC

| Binder | Kd [1] [nM] | Kd [2] [nM] | Kd [3] [nM] |
| --- | --- | --- | --- |
| B1 | ~40 | – | – |
| B2 | – | ~19 | ~0.28 |
